# According to patent US11702475B2, “Cysteine engineered fibronectin type III domain binding molecules” (Janssen Biotech, Inc., priority 2013, dated 2023):
# Residue numbers refer to the chain shown, from its start. Entries after “also recorded” stand apart in the source; their conditions may differ. Where two headings read alike, the source gives them in different places.
# B1: ECB39: bispecific SEQ ID 121: P53A1R5-17V2, (AP)5, P114AR7P94-A3, linked to albumin binding domain (protein)
# chain: MLPAPKNLVVSEVTEDSARLSWADPHGFYDSFLIQYQESEKVGEAIVLTVPGSERSYDLTGLKPGTEYTVSIYGVHNVYKDTNMRGLPLSAIFTTAPAPAPAPAPLPAPKNLVVSRVTEDSARLSWTAPDAAFDSFWIRYFEFLGSGEAIVLTVPGSERSYDLTGLKPGTEYVVNIMGVKGGKISPPLSAIFTTAPAPAPAPAPLAEAKVLANRELDKYGVSDYYKNLINNAKTVEGVKALLDEILAALP
# modifications: Bispecific EGFR/c-Met binding molecule
# B2: ECB38: bispecific SEQ ID 120: P54AR4-83V2, (AP)5, P114AR7P94-A3, linked to albumin binding domain (protein)
# chain: B1 chain with A23D, H26W, G27A, D30E
# modifications: Bispecific EGFR/c-Met binding molecule
# B3: ECB5: bispecific SEQ ID 54: P53A1R5-17V2, (GGGGS)4, P114AR7P94-A3 (protein)
# chain: MLPAPKNLVVSEVTEDSARLSWADPHGFYDSFLIQYQESEKVGEAIVLTVPGSERSYDLTGLKPGTEYTVSIYGVHNVYKDTNMRGLPLSAIFTTGGGGSGGGGSGGGGSGGGGSMLPAPKNLVVSRVTEDSARLSWTAPDAAFDSFWIRYFEFLGSGEAIVLTVPGSERSYDLTGLKPGTEYVVNIMGVKGGKISPPLSAIFTT
# modifications: bispecific EGFR/cMet binding molecule
# B4: ECB108: bispecific SEQ ID 67: P54AR4-83V23, (AP)5, P114AR9P122-A7v2 (protein)
# chain: MLPAPKNLVVSEVTEDSARLSWDDPHAFYESFLIQYQESEKVGEAIVLTVPGSERSYDLTGLKPGTEYTVSIYGVHNVYKDTNIRGLPLSAIFTTAPAPAPAPAPLPAPKNLVVSRVTEDSARLSWTAPDAAFDSFWIRYFEFVSKGDAIVLTVPGSERSYDLTGLKPGTEYVVNILGVKGGSISPPLSAIFTT
# modifications: bispecific EGFR/cMet binding molecule
# B5: ECB109: bispecific SEQ ID 68: P54AR4-83V23, (AP)5, P114AR7P95-C5V2 (protein)
# chain: B4 chain with V144L, S145G, K146S, D148E, G178S
# modifications: bispecific EGFR/cMet binding molecule
# Experiments:
# [1] = test system: H292-HGF human lung cancer xenograft; assay: Efficacy of bispecific molecule and other inhibitors in subcutaneous H292-HGF xenograft model; type: in vivo, SCID/Beige mice; conditions: for mean tumor size: ECB38 25 mg/kg; for antitumor activity (in words): doses as in E46
# Procedure: The H292-HGF cells were maintained in vitro in RPMI1640 medium supplemented with fetal bovine serum (10% v/v), and L-glutamine (2 mM) at 37° C. in an atmosphere of 5% CO2 in air. The cells were routinely subcultured twice weekly by trypsin-EDTA treatment. The cells growing in an exponential growth phase were harvested and counted for tumor inoculation.
# Each mouse was inoculated subcutaneously at the right flank region with H292-HGF tumor cells (2×10^6) in 0.1 ml of PBS with cultrex (1:1) for tumor development. The treatments were started when the mean tumor size reached 139 mm^3. […] The date of tumor cell inoculation was denoted as day 0.
# Before commencement of treatment, all animals were weighed and the tumor volumes were measured. Since the tumor volume can affect the effectiveness of any given treatment, mice were assigned into groups using randomized block design based upon their tumor volumes. […] The randomized block design was used to assign experimental animals to groups. First, the experimental animals were divided into homogeneous blocks according to their initial tumor volume. Secondly, within each block, randomization of experimental animals to treatments was conducted.
# The major endpoint was whether tumor growth can be delayed or tumor bearing mice can be cured. Tumor size was measured twice weekly in two dimensions using a caliper, and the volume was expressed in mm^3 using the formula: V=0.5 a×b^2 where a and b are the long and short diameters of the tumor, respectively. The tumor size was then used for calculations of both T−C and T/C values. T−C was calculated with T as the time (in days) required for the mean tumor size of the treatment group to reach 1000 mm^3, and C was the time (in days) for the mean tumor size of the control group to reach the same size. The T/C value (in percent) was an indication of antitumor efficacy; T and C were the mean volume of the treated and control groups, respectively, on a given day. Complete tumor regression (CR) is defined as tumors that are reduced to below the limit of palpation (62.5 mm^3). Partial tumor regression (PR) is defined as tumors that are reduced from initial tumor volume. A minimum duration of CR or PR in 3 or more successive tumor measurements is required for a CP or PR to be considered durable.
# Statistical analyses of difference in tumor volume among the groups were evaluated using a one-way ANOVA followed by individual comparisons using Games-Howell (equal variance not assumed). All data were analyzed using SPSS 18.0. p<0.05 was considered to be statistically significant.
# [2] = Body weight and tolerability in the H292-HGF xenograft study; conditions: for toxicity / body weight loss / tolerability (in words): doses as in E46
# Procedure: (§2) At the time of routine monitoring, the animals were checked for any effects of tumor growth and treatments on normal behavior, such as mobility, visual estimation of food and water consumption, body weight gain/loss (body weights were measured twice weekly), eye/hair matting and any other abnormal effect.
# (§3) Animals for which the body weight loss exceeded 20%, or for which the mean tumor size of the group exceeds 2000 mm^3 were euthanized. The study was terminated after two weeks of observation after the final dose.
# [3] = test system: H292-HGF tumor xenografts; assay: Tumor efficacy study with bispecific EGFR/c-Met molecules of variable affinity; type: in vivo, SCID Beige mice; conditions: 25 mg/kg three times per week
# Procedure: One week after implantation, mice were stratified into groups with equivalent tumor volumes (mean tumor volume=77.9+/−1.7 mm^3). Mice were dosed three times per week with the bispecific molecules and tumor volumes were recorded twice weekly.
# [4] = mouse, in vivo, ip
# Procedure: SCID Beige mice were subcutaneously inoculated with NCI-H292 cells expressing human HGF (2.0×10^6 cells in Cultrex (Trevigen) in a volume of 200 μL) on the dorsal flank of each animal. Tumor measurements were taken twice weekly until tumor volumes ranged between 150-250 mm^3. […] At 6h or 72h after dosing, tumors were extracted and immediately frozen in liquid nitrogen. […] Immediately after collection, the blood samples were centrifuged and the resulting plasma was transferred to sample tubes and stored at −80° C. Tumors were weighed, cut into small pieces, and lysed in Lysing Matrix A tubes (LMA) containing RIPA buffer with HALT protease/phosphatase inhibitors (Pierce), 50 mM sodium fluoride (Sigma), 2 mM activated sodium orthovanadate (Sigma), and 1 mM PMSF (MesoScale Discovery). Lysates were removed from LMA matrix and centrifuged to remove insoluble protein. The soluble tumor protein was quantified with a BCA protein assay and diluted to equivalent protein levels in tumor lysis buffer. Phosphorylated c-Met, EGFR and ERK were measured using assay plates from MesoScale Discovery (according to Manufacturer's protocol and as described above).
# [5] = mouse, in vivo
# Procedure: as §2, §3
# EGFR [6] = molecular target: T1, EGFR (Homo sapiens, UniProt P00533); assay: Inhibition of EGFR phosphorylation in NCI-H441 cells; type: cell-based; conditions: FIG. 7C
# Procedure: (§1) NCI-H292, NCI-H441, or NCI-H596 cells were plated in 96 well plates in RPMI medium containing 10% FBS. 24 hours later, medium was replaced with serum free RPMI. […] Cells were treated for 1h with the monospecific or bispecific molecules and then stimulated with EGF, HGF, or a combination of EGF and HGF for 15 minutes at 37° C., 5% CO2. Cells were lysed with MSD Lysis Buffer and cell signaling was assessed using appropriate MSD Assay plates, according to manufacturer's instructions, as described above.
# EGFR [7] = molecular target: T1, EGFR; assay: Inhibition of EGFR phosphorylation in NCI-H292 cells; type: cell-based; conditions: FIG. 7A
# Procedure: as §1
# Purified bispecific PEG24-maleimide conjugates were tested for their ability to inhibit EGF-stimulated phosphorylation of EGFR in the human tumor cell line NCI-H292 (American Type Culture Collection, cat. #CRL-1848) using the EGFR phospho(Tyr1173) kit from Meso Scale Discovery (Gaithersburg, Md.) and as described in Example 3.
# EGFR [8] = molecular target: T1, EGFR; assay: Inhibition of EGFR phosphorylation in NCI-H596 cells; type: cell-based; conditions: FIG. 7B
# Procedure: as §1
# H292 cells = assay: Inhibition of proliferation of H292 cells (HGF-induced); type: cell-based, human
# Excerpt: Inhibition of tumor cell proliferation can be measured using standard methods and methods described herein.
# It was verified that the enhanced potency for inhibition of EGFR and c-Met phosphorylation with the bispecific EGFR/c-Met molecules translated into an enhanced inhibition of signaling and proliferation. […] The proliferation assay was completed using different combinations EGFR and c-Met binding FN3 domains either as a mixture or linked in a bispecific format. […] This confirmed that the avidity effect observed at the level of the receptors (FIG. 6 and FIG. 7) translates into an improvement in inhibiting cell signaling (Table 17) and cell proliferation (Table 18).
# Select EGFR/c-Met molecules were characterized for their affinity to both EGFR and c-Met, their ability to inhibit EGFR and c-Met autophosphorylation, and their effect on proliferation of HGF cells. Binding affinity of the bispecific EGFR/c-Met molecules to recombinant EGFR and/or c-Met extracellular domain was further by surface Plasmon resonance methods using a Proteon Instrument (BioRad) according to protocol described in Example 3.
# [9] = day 23 after tumor inoculation, Crizotinib 50 mg/kg, Erlotinib 50 mg/kg, Cetuximab 1 mg/mouse
molecule,measurement,setting,value
"C[C@@H](Oc1cc(-c2cnn(C3CCNCC3)c2)cnc1N)c1c(Cl)ccc(F)c1Cl [Crizotinib, crizotinib]",Tumor volume (mm^3),"[1]; day 9 after tumor inoculation, mean ± SEM, bispecific 25 mg/kg, Crizotinib 50 mg/kg, Erlotinib 50 mg/kg, Cetuximab 1 mg/mouse",217 ± 20 mm^3
same,Tumor volume (mm^3),"[1]; day 13 after tumor inoculation, mean ± SEM, bispecific 25 mg/kg, Crizotinib 50 mg/kg, Erlotinib 50 mg/kg, Cetuximab 1 mg/mouse",547 ± 43 mm^3
same,Tumor volume (mm^3),"[1]; day 16 after tumor inoculation, mean ± SEM, bispecific 25 mg/kg, Crizotinib 50 mg/kg, Erlotinib 50 mg/kg, Cetuximab 1 mg/mouse",914 ± 92 mm^3
same,Tumor volume (mm^3),"[1]; day 20 after tumor inoculation, mean ± SEM, bispecific 25 mg/kg, Crizotinib 50 mg/kg, Erlotinib 50 mg/kg, Cetuximab 1 mg/mouse",1438 ± 239 mm^3
same,T/C (%),"[1]; day 23, mean volume of treated vs control group, doses as in the Treatment column",120%
same,Tumor Size (mm^3) at day 23,"[1]; day 23, mean ± SEM, bispecific 25 mg/kg, Crizotinib 50 mg/kg, Erlotinib 50 mg/kg, combination 50 mg/kg + 50 mg/kg, Cetuximab 1 mg/mouse",2102 ± 298 mm^3
same,mean tumor size,[1]; [9],"2,102 mm^3"
same,Tumor volume (mm^3),"[1]; day 23 after tumor inoculation, mean ± SEM, bispecific 25 mg/kg, Crizotinib 50 mg/kg, Erlotinib 50 mg/kg, Cetuximab 1 mg/mouse",2102 ± 298 mm^3
same,antitumor activity (in words),[1],no antitumor activity
same,toxicity / body weight loss / tolerability (in words),[2],More severe body weight loss
"C#Cc1cccc(Nc2ncnc3cc(OCCOC)c(OCCOC)cc23)c1 [Erlotinib, erlotinib]",toxicity / body weight loss / tolerability (in words),[2],More severe body weight loss
B1,tumor growth / tumor growth inhibition (in words),[3],showed the most efficacy
same,tumor accumulation (in words),[4],significantly more tumor accumulation at 6 hours relative to the other molecules
B2,tumor growth / tumor growth inhibition (in words),[3],showed the most efficacy
same,mean tumor size,[1]; [9],23 mm^3
same,antitumor activity (in words),[1],complete tumor regression (CR) in all mice; also recorded: complete response
same,toxicity / body weight loss / tolerability (in words),[5],Slight toxicity
same,mice euthanized when BWL>20% during the treatment period,[2]; 25 mg/kg,3 mice
same,mice in which the treatment was tolerated,"[2]; 25 mg/kg, 3 times/week x 3 weeks",7 out of 10
B3,decrease of IC50 for inhibition of EGFR phosphorylation compared to the monospecific EGFR-binding FN3 domain,EGFR [6],30 fold
same,"inhibition of phosphorylation of EGFR, bispecific vs monospecific (in words)",EGFR [7],comparable
same,"inhibition of phosphorylation of EGFR, bispecific vs monospecific (in words)",EGFR [8],comparable
B4,IC50,H292 cells,11.4 µM
B5,IC50,H292 cells,0.574 µM
